Results as given in publication PMC7160950, “Identification and analysis of KLF13 variants in patients with congenital heart disease” (BMC Medical Genetics, 2020).

Molecular target: Kruppel-like factor 13 (KLF13), wild type, myc-tagged (human, UniProt Q9Y2Y9 1-288)
Test: cell-based or functional assay

Kruppel-like factor 13 (KLF13), wild type, myc-tagged, sequence (Q9Y2Y9 whole entry): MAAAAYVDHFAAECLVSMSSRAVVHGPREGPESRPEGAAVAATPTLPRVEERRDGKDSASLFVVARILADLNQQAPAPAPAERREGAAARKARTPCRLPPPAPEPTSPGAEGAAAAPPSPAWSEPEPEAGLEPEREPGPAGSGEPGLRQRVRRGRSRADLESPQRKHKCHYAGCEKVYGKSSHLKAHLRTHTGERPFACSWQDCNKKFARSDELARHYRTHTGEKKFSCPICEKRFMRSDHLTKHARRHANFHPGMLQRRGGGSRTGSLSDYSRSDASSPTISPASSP

BNP-luciferase reporter activation in NIH 3 T3 cells cotransfected with KLF13 and TBX5: ≤ 75 fold
B1: TBX5 (natural protein, UniProt Q99593 1-518, looked up)
chain: MADADEGFGLAHTPLEPDAKDLPCDSKPESALGAPSKSPSSPQAAFTQQGMEGIKVFLHERELWLKFHEVGTEMIITKAGRRMFPSYKVKVTGLNPKTKYILLMDIVPADDHRYKFADNKWSVTGKAEPAMPGRLYVHPDSPATGAHWMRQLVSFQKLKLTNNHLDPFGHIILNSMHKYQPRLHIVKADENNGFGSKNTAFCTHVFPETAFIAVTSYQNHKITQLKIENNPFAKGFRGSDDMELHRMSRMQSKEYPVVPRSTVRQKVASNHSPFSSESRALSTSSNLGSQYQCENGVSGPSQDLLPPPNPYPLPQEHSQIYHCTKRKEEECSTTDHPYKKPYMETSPSEEDSFYRSSYPQQQGLGASYRTESAQRQACMYASSAPPSEPVPSLEDISCNTWPSMPSYSSCTVTTVQPMDRLPYQHFSAHFTSGPLVPRLAGMANHGSPQLGEGMFQHQTSVAHQPVVRQCGPQTGLQSPGTLQPPEFLYSHGVPRTLSPHQYHSVHGVGMVPEWSDNS
